Experimental data taken from the supplement of paper PMC10201428.
± gives the standard deviation of the averaged measurements.

What was measured:
[1] = system: VchCAST RNA-guided transposition machinery (E. coli BL21(DE3) host, lacZ target); assay: relative integration efficiency (T-RL orientation) vs wild-type transposon end (log2 (normalized fold change)); transposon end mutated: right end (5 bp flank + 75 bp right end); higher = more efficient transposition
Method in brief: (§1)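 Pools of 1549 left-end or 1849 right-end barcoded transposon variants were cloned into a pUC57 mini-transposon donor and co-transformed into E. coli BL21(DE3) with a T7-driven effector plasmid carrying a CRISPR array, tniQ-cas8-cas7-cas6 and tnsA-tnsB-tnsC. Plating used 0.1 mM IPTG at 37°C for 18 h, and input plasmids and genomic integration junctions were PCR-amplified for Illumina sequencing, with two biological output replicates and four reference barcodes. Relative integration efficiency is the log-transformed fold change of output over input barcode abundance, normalised to the reference barcodes.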

[2] = system: VchCAST RNA-guided transposition machinery (E. coli BL21(DE3) host, lacZ target); assay: relative integration efficiency (T-LR orientation) vs wild-type transposon end (log2 (normalized fold change)); transposon end mutated: right end (5 bp flank + 75 bp right end); higher = more efficient transposition
Method in brief: as §1

| Sequence | relative integration efficiency (log2) [1] | relative integration efficiency (log2) [2] |
| --- | --- | --- |
| ACATTTGTTGATACAACCATAAAATGATAATTAATAATTATTTATAACACCCATAAATTGATAATTATCAACAAACGCCCGGTCGCGGTACTCTGATCATAGTCAGACCAACATTGCTACGACCCGT | -2.63 ± 0.52 | 0.00268 ± 0.47 |
| ACATTTGTTGATACAACCATAAAATGATAATTAATAATTATTTATAACACCCATAAATTGATAATTATCACACCCATAAATTGATATTGCCTCTGATCATAGTCAGACCAACATTGCTACGACCCGT | -3.19 ± 0.2 | -0.494 ± 0.28 |
| ACATTTGTTGATACAACCATAAAATGATAATTAATAATTATTTATAATCACACCCATAAATTGATAATTATCAACAAACGCCCGGTCGCGGTACTCTGATCATAGTCAGACCAACATTGCTACGACC | -2.09 ± 0.28 | 1.25 ± 0.18 |
| ACATTTGTTGATACAACCATAAAATGATAATTAATAATTATTTATAATCACACCCATAAATTGATAATTATCACACCCATAAATTGATATTGCCTCTGATCATAGTCAGACCAACATTGCTACGACC | -3.38 ± 0.096 | -0.35 ± 0.25 |
| ACATTTGTTGATACAACCATAAAATGATAATTAATAATTATTTATAATCACCCATAAATTGATAATTATCAACAAACGCCCGGTCGCGGTACTCTGATCATAGTCAGACCAACATTGCTACGACCCG | -3.08 ± 0.15 | 1.05 ± 0.26 |
| ACATTTGTTGATACAACCATAAAATGATAATTAATAATTATTTATAATCACCCATAAATTGATAATTATCACACCCATAAATTGATATTGCCTCTGATCATAGTCAGACCAACATTGCTACGACCCG | -2.92 ± 0.3 | 0.877 ± 0.18 |
| ACATTTGTTGATACAACCATAAAATGATAATTAATAATTATTTATAATCAGCAACACCCATAAATTGATAATTATCAACAAACGCCCGGTCGCGGTACTCTGATCATAGTCAGACCAACATTGCTAC | -3.18 ± 0.077 | 0.0215 ± 0.36 |
| ACATTTGTTGATACAACCATAAAATGATAATTAATAATTATTTATAATCAGCAACCACCCATAAATTGATAATTATCAACAAACGCCCGGTCGCGGTACTCTGATCATAGTCAGACCAACATTGCTA | -2.29 ± 0.24 | 0.0897 ± 0.14 |
| ACATTTGTTGATACAACCATAAAATGATAATTAATAATTATTTATAATCAGCAACCACCCATAAATTGATAATTATCACACCCATAAATTGATATTGCCTCTGATCATAGTCAGACCAACATTGCTA | -3.26 ± 0.25 | -1.81 ± 0.066 |
| ACATTTGTTGATACAACCATAAAATGATAATTAATAATTATTTATAATCAGCAACTCACCCATAAATTGATAATTATCAACAAACGCCCGGTCGCGGTACTCTGATCATAGTCAGACCAACATTGCT | -2.25 ± 0.75 | -0.174 ± 0.43 |
| ACATTTGTTGATACAACCATAAAATGATAATTAATAATTATTTATAATCAGCAACTCACCCATAAATTGATAATTATCACACCCATAAATTGATATTGCCTCTGATCATAGTCAGACCAACATTGCT | -3.48 ± 0.49 | -2.22 ± 1.2 |
| ACATTTGTTGATACAACCATAAAATGATAATTAATAATTATTTATAATCAGCAACTTAACACCCATAAATTGATAATTATCAACAAACGCCCGGTCGCGGTACTCTGATCATAGTCAGACCAACATT | -3.404 ± 0.015 | -0.0617 ± 0.066 |
| ACATTTGTTGATACAACCATAAAATGATAATTAATAATTATTTATAATCAGCAACTTAACACCCATAAATTGATAATTATCACACCCATAAATTGATATTGCCTCTGATCATAGTCAGACCAACATT | -3.62 ± 0.28 | -0.417 ± 0.9 |
| ACATTTGTTGATACAACCATAAAATGATAATTAATAATTATTTATAATCAGCAACTTAACCACAAAACACCCATAAATTGATAATTAACAAAACACCCATAAATTGATATTGCCTCTGATCATAGTC | -5.1 ± 0.59 | < -10 |
| ACATTTGTTGATACAACCATAAAATGATAATTAATAATTATTTATAATCAGCAACTTAACCACAAAACACCCATAAATTGATAATTAACAAAAGTGGGTATTTAACTATAACGTGTGAATCGAGTAT | -3.472 ± 0.019 | -1.88 ± 0.39 |
| ACATTTGTTGATACAACCATAAAATGATAATTAATAATTATTTATAATCAGCAACTTAACCACAAAACACCCATAAATTGATAATTAACAACACCCATAAATTGATATTGCCTCTGATCATAGTCAG | -4.56 ± 0.76 | -1.12 ± 0.49 |
| ACATTTGTTGATACAACCATAAAATGATAATTAATAATTATTTATAATCAGCAACTTAACCACAAAACACCCATAAATTGATAATTATCAACAAACGCCCGGTCGCGGTACTCTGATCATAGTCAGA | -4.43 ± 0.39 | -2.48 ± 1.9 |
| ACATTTGTTGATACAACCATAAAATGATAATTAATAATTATTTATAATCAGCAACTTAACCACAAACACCCATAAATTGATAATTATCAACAAACGCCCGGTCGCGGTACTCTGATCATAGTCAGAC | -3.5 ± 0.52 | -0.33 ± 0.047 |

| Sequence | relative integration efficiency (log2) [1] | relative integration efficiency (log2) [2] |
| --- | --- | --- |
| ACATTTGTTGATACAACCATAAAATGATAATTAATAATTATTTATAATCAGCAACTTAACCACAAACACCCATAAATTGATAATTATCACACCCATAAATTGATATTGCCTCTGATCATAGTCAGAC | -5.71 ± 1.2 | -4.03 ± 0.67 |
| ACATTTGTTGATACAACCATAAAATGATAATTAATAATTATTTATAATCAGCAACTTAACCACAACACCCATAAATTGATAATTATCAACAAACGCCCGGTCGCGGTACTCTGATCATAGTCAGACC | -3.33 ± 0.27 | -0.0981 ± 0.042 |
| ACATTTGTTGATACAACCATAAAATGATAATTAATAATTATTTATAATCAGCAACTTAACCACAACACCCATAAATTGATAATTATCACACCCATAAATTGATATTGCCTCTGATCATAGTCAGACC | -3.94 ± 1.1 | -2.74 ± 0.53 |
| ACATTTGTTGATACAACCATAAAATGATAATTAATAATTATTTATAATCAGCAACTTAACCACACACCCATAAATTGATAATTATCAACAAACGCCCGGTCGCGGTACTCTGATCATAGTCAGACCA | -2.65 ± 0.4 | 0.76 ± 0.68 |
| ACATTTGTTGATACAACCATAAAATGATAATTAATAATTATTTATAATCAGCAACTTAACCACACACCCATAAATTGATAATTATCACACCCATAAATTGATATTGCCTCTGATCATAGTCAGACCA | -3.09 ± 0.16 | -0.603 ± 0.78 |
| ACATTTGTTGATACAACCATAAAATGATAATTAATAATTATTTATAATCAGCAACTTAACCACACCCATAAATTGATAATTATCAACAAACGCCCGGTCGCGGTACTCTGATCATAGTCAGACCAAC | -2.81 ± 0.91 | 1.01 ± 0.042 |
| ACATTTGTTGATACAACCATAAAATGATAATTAATAATTATTTATAATCAGCAACTTAACCACACCCATAAATTGATAATTATCACACCCATAAATTGATATTGCCTCTGATCATAGTCAGACCAAC | -4.19 ± 0.29 | -0.704 ± 0.18 |
| ACATTTGTTGATACAACCATAAAATGATAATTAATAATTATTTATAATCAGCAACTTAACCACCACCCATAAATTGATAATTATCAACAAACGCCCGGTCGCGGTACTCTGATCATAGTCAGACCAA | -3.21 ± 0.38 | 0.423 ± 1.1 |
| ACATTTGTTGATACAACCATAAAATGATAATTAATAATTATTTATAATCAGCAACTTAACCACCACCCATAAATTGATAATTATCACACCCATAAATTGATATTGCCTCTGATCATAGTCAGACCAA | -3.5 ± 0.74 | -0.482 ± 0.91 |
| ACATTTGTTGATACAACCATAAAATGATAATTAATAATTATTTATAATCAGCAACTTAACCACCCATAAATTGATAATTATCAACAAACGCCCGGTCGCGGTACTCTGATCATAGTCAGACCAACAT | -3.11 ± 0.29 | 0.501 ± 0.39 |
| ACATTTGTTGATACAACCATAAAATGATAATTAATAATTATTTATAATCAGCAACTTAACCACCCATAAATTGATAATTATCACACCCATAAATTGATATTGCCTCTGATCATAGTCAGACCAACAT | -3.17 ± 0.073 | -1.2 ± 2.8 |
| ACATTTGTTGATACAACCATAAAATGATAATTAATAATTATTTATAATCAGCAACTTAACCCACCCATAAATTGATAATTATCAACAAACGCCCGGTCGCGGTACTCTGATCATAGTCAGACCAACA | -2.76 ± 0.67 | 0.743 ± 0.49 |
| ACATTTGTTGATACAACCATAAAATGATAATTAATAATTATTTATAATCAGCAACTTAACCCACCCATAAATTGATAATTATCACACCCATAAATTGATATTGCCTCTGATCATAGTCAGACCAACA | -3.06 ± 0.43 | 0.044 ± 0.09 |
| ACATTTGTTGATACAACCATAAAATGATAATTAATAATTATTTATAATCAGCAACTTACACCCATAAATTGATAATTATCAACAAACGCCCGGTCGCGGTACTCTGATCATAGTCAGACCAACATTG | -4.47 ± 1 | -1.91 ± 0.28 |
| ACATTTGTTGATACAACCATAAAATGATAATTAATAATTATTTATAATCAGCAACTTACACCCATAAATTGATAATTATCACACCCATAAATTGATATTGCCTCTGATCATAGTCAGACCAACATTG | -5.34 ± 0.86 | -3.43 ± 0.46 |
| ACATTTGTTGATACAACCATAAAATGATAATTAATAATTATTTATAATCAGCAACTTCACCCATAAATTGATAATTATCAACAAACGCCCGGTCGCGGTACTCTGATCATAGTCAGACCAACATTGC | -2.15 ± 0.52 | 0.707 ± 0.87 |
| ACATTTGTTGATACAACCATAAAATGATAATTAATAATTATTTATAATCAGCAACTTCACCCATAAATTGATAATTATCACACCCATAAATTGATATTGCCTCTGATCATAGTCAGACCAACATTGC | -3.33 ± 0.32 | -1.32 ± 0.21 |
